Experimental data taken from patent publication US20250277022A1 (STAIDSON BEIJING BIOPHARMACEUTICALS, published 2025).
Like-named read-outs stand apart in the source and are kept apart here.

Columns and labels:
human TSLP [1] = target: T1, human TSLP (human, UniProt Q969D9 29-159); experiment: cell-based or functional assay
human TSLP [2] = target: T1, human TSLP; experiment: ELISA, plate coated with human TSLP, test antibodies as human IgG1
Experimental: (§1) ELISA Screening: Monoclonal scFv antibodies were selected and subjected to ligand binding assays. The first assay was designed to identify scFv antibodies that bound human TSLP and/or cynomolgus TSLP. Briefly, a 96-well plate was coated with human TSLP or cynomolgus TSLP in PBS at 0.1 μg/well and left overnight at 4° C. Before loading the scFv antibodies, the plates were washed with TBST, blocked for 1-2 hours at 37° C. using 5% milk and washed again with TBST. Each scFv sample was first diluted to 40 μg/mL, and 150 μL was added to the first row of wells. The 40 μg/mL scFv samples were then serially diluted at a 1:3 ratio and added to the remaining wells. After incubating for an hour at 37° C., followed by washing with TBST for 6 times, 100 μl of the secondary antibody (HRP labeled mouse anti-flag (1:2500)) was added to each well. After incubation for an hour under 37° C., the plate was washed for 3 times using TBST. TMB was then added at 100 μL/well and incubated for 10-20 minutes at 37° C. 2 M H₂SO₄ was used to stop the reaction. The ELISA results (OD405) were then analyzed and the binding curves were generated by PRISM.

cynomolgus monkey TSLP [3] = target: T2, cynomolgus monkey TSLP (cynomolgus monkey, UniProt A0A7N9CAT7 29-159); experiment: ELISA, plate coated with cynomolgus monkey TSLP, test antibodies as human IgG1
T2 construct: also called cynomolgus TSLP; recombinant cynomolgus monkey TSLP
T2 sequence (A0A7N9CAT7 entry or part of it): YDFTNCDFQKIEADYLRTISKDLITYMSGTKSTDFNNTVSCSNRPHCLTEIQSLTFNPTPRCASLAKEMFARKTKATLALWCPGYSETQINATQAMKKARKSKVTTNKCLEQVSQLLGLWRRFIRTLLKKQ
Experimental: as §1

human TSLP [4] = target: T1, human TSLP; experiment: cell-based or functional assay; remark: listed apart in the source
human TSLP [5] = target: T1, human TSLP; experiment: cell-based or functional assay; remark: listed apart in the source
human TSLP [6] = target: T1, human TSLP; experiment: ELISA, plate coated with human TSLP, test antibodies as human IgG1; remark: listed apart in the source
Experimental: as §1

TSLP-His = target: T3, TSLP-His (human, UniProt Q969D9 29-159, limits assumed); experiment: HTRF competition: blocking of TSLP-his binding to HEK293-Flag-hTSLPR-IL7Ra cells, IgG1
T3 construct: also called his-tagged TSLP; not shown: His-tag
T3 sequence (Q969D9 29-159 R127A/R130S limits assumed): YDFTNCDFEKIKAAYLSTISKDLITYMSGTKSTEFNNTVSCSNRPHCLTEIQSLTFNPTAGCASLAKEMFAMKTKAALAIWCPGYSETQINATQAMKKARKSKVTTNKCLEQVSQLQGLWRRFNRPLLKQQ

human TSLP [7] = target: T1, human TSLP; experiment: cell-based or functional assay; remark: listed apart in the source
human TSLP [8] = target: T1, human TSLP; experiment: ELISA, plate coated with human TSLP, test antibodies as human IgG1; remark: listed apart in the source
Experimental: as §1

cynomolgus monkey TSLP [9] = target: T2, cynomolgus monkey TSLP; experiment: ELISA, plate coated with cynomolgus monkey TSLP, test antibodies as human IgG1; remark: listed apart in the source
Experimental: as §1

human TSLP [10] = target: T1, human TSLP; experiment: ELISA, plate coated with human TSLP, test antibodies as human IgG1; remark: listed apart in the source
Experimental: as §1

cynomolgus monkey TSLP [11] = target: T2, cynomolgus monkey TSLP; experiment: ELISA, plate coated with cynomolgus monkey TSLP, test antibodies as human IgG1; remark: listed apart in the source
Experimental: as §1

T1 sequence (Q969D9 29-159 R127A/R130S limits assumed): as above

Binder	IC50, inhibition of human TSLP-induced Stat5 activation (Stat5-luciferase reporter, Ba/F3 cells with hTSLPR and hIL7Ra) (human TSLP [1]) [µg/mL]	EC50 (read off the curve) (human TSLP [2]) [µg/mL]	EC50 (read off the curve) (cynomolgus monkey TSLP [3]) [µg/mL]	IC50, inhibition of human TSLP-induced Stat5 activation (Stat5-luciferase reporter, Ba/F3 cells with hTSLPR and hIL7Ra) (human TSLP [4]) [µg/mL]	IC50, inhibition of TSLP induced proliferation of Ba/F3-TSLPR-IL7Ra cells (CellTiter-Glo) (human TSLP [5]) [µg/mL]	EC50 (read off the curve) (human TSLP [6]) [µg/mL]	further results
TSLP-0101 (antibody, V domains shown) VH: QVQLQESGPGLVKPSETLSLTCAVSGYSISSGYGWSWIRQPPGKGLEWIGYISYYGSISYNPSLKSRVTISRDTSKNQFSLKLSSVTAADTAVYYCARTNLLYFDSWGQGTLVTVSS VL: not shown	0.0092	~0.03	~0.7	–	–	–	–
TSLP-0102 (antibody, V domains shown) VH: QVQLQESGPGLVKPSETLSLTCTVSGYSISSGYGWSWIRQPPGKGLEWIGYISYYGSISYNPSLKSRVTISRDTSKNQFSLKLSSVTAADTAVYYCARTNLLYFDSWGQGTLVTVSS VL: EIVMTQSPATLSLSPGERATLSCRASQSVSNNLAWYQQKPGQAPRLLIYDASSRATGIPARFSGSGSGTDFTLTISSLEPEDFAVYYCQQYSDWPQYTFGQGTKVEIK	0.0114	~0.04	~0.7	–	–	–	–
TSLP-0110 (antibody, V domains shown) VH: QVQLQESGPGLVKPSETLSLTCAVSGYSISSGYGWSWIRQPPGKGLEWIGYISYYGSTSYNPSLKSRVTISRDTSKNQFSLKLSSVTAADTAVYYCARTNLLYFDSWGQGTLVTVSS VL: EIVMTQSPATLSLSPGERATLSCRASQSVSSYLAWYQQKPGQAPRLLIYDTSSRATGIPARFSGSGSGTDFTLTISSLEPEDFAVYYCQQYSNWPQYSFGQGTKVEIK	–	–	–	0.0245	0.129	~0.08	–
TSLP-0111 (antibody, V domains shown) VH: QVQLQESGPGLVKPSETLSLTCAVSGYSISSGYGWSWIRQPPGKGLEWIGYFSYYGSTSYNPSLKSRVTISRDTSKNQFSLKLSSVTAADTAVYYCARTNLLYFDSWGQGTLVTVSS VL: EIVMTQSPATLSLSPGERATLSCRASQSVSSNLAWYQQKPGQAPRLLIYDASSRATGIPARFSGSGSGTDFTLTISSLEPEDFAVYYCQQYSNWPQYSFGQGTKVEIK	–	–	–	0.0438	0.244	~0.08	–
TSLP-0112 (antibody, V domains shown) VH: QVQLQESGPGLVKPSETLSLTCAVSGYSISSGYGWSWIRQPPGKGLEWIGYISYYGSTSYNPSLKSRVTISRDTSKNQFSLKLSSVTAADTAVYYCARTNLLYFDYWGQGTLVTVSS VL: EIVMTQSPATLSLSPGERATLSCRASQSVSSYLAWYQQKPGQAPRLLIYDASSRATGIPARFSGSGSGTDFTLTISSLEPEDFAVYYCQQYSDWPQYSFGQGTKVEIK	–	–	–	0.0308	0.214	~0.08	–
TSLP-0106 (antibody, V domains shown) VH: QVQLQESGPGLVKPSETLSLTCTVSGYSISSGYGWSWIRQPPGKGLEWIGYISYYGSISYNPSLKSRVTISVDTSKNQFSLKLSSVTAADTAVYYCARTNLLYFDSWGQGTLVTVSS VL: EIVMTQSPATLSLSPGERATLSCRASQSVSNNLAWYQQKPGQAPRLLIYDASSRATGIPARFSGSGSGTDFTLTISSLEPEDFAVYYCQQYSDWPQYTFGQGTKVEIK	0.0169	~0.05	~0.9	–	–	–	–
TSLP-0104 (antibody, V domains shown) VH: QVQLQESGPGLVKPSETLSLTCAVSGYSISSGYGWSWIRQPPGKGLEWIGYISYYGSISYNPSLKSRVTISVDTSKNQFSLKLSSVTAADTAVYYCARTNLLYFDSWGQGTLVTVSS VL: EIVMTQSPATLSLSPGERATLSCRASQSVSNNLAWYQQKPGQAPRLLIYDASSRATGIPARFSGSGSGTDFTLTISSLEPEDFAVYYCQQYSDWPQYTFGQGTKVEIK	0.0154	~0.04	~0.7	–	–	–	–
TSLP-0108 (antibody, V domains shown) VH: QVQLQESGPGLVKPSETLSLTCAVSGYSISSGYGWSWIRQPPGKGLEWIGYISYYGSTSYNPSLKSRVTISRDTSKNQFSLKLSSVTAADTAVYYCARTNLLYFDSWGQGTLVTVSS VL: EIVMTQSPATLSLSPGERATLSCRASQSVSNNLAWYQQKPGQAPRLLIYDASSRATGIPARFSGSGSGTDFTLTISSLEPEDFAVYYCQQYSDWPEYSFGQGTKVEIK	–	–	–	0.0108	0.0394	~0.06	IC50 (TSLP-His): 0.158 µg/mL
TSLP-0105 (antibody, V domains shown) VH: QVQLQESGPGLVKPSETLSLTCAVSGYSISSGYGWSWIRQPPGKGLEWIGYISYYGSISYNPSLKSRVTISVDTSKNQFSLKLSSVTAADTAVYYCARTNLLYFDSWGQGTLVTVSS VL: not shown	0.0182	~0.05	~0.7	–	–	–	–
TSLP-0109 (antibody, V domains shown) VH: QVQLQESGPGLVKPSETLSLTCAVSGYSISSGYGWSWIRQPPGKGLEWIGYISYYGSTSYNPSLKSRVTISRDTSKNQFSLKLSSVTAADTAVYYCARTNLLYFESWGQGTLVTVSS VL: EIVMTQSPATLSLSPGERATLSCRASQGISSYLAWYQQKPGQAPRLLIYDASNLQSGIPARFSGSGSGTDFTLTISSLEPEDFAVYYCQQYSNWPQYSFGQGTKVEIK	–	–	–	0.0228	0.0304	~0.07	–
TSLP-0201 (antibody, V domains shown) VH: QVQLVQSGAEVKKPGSSVKVSCKASGFTFGSYGINWVRQAPGQGLEWMGVIVPLVGVTIYAEKFQGRVTITADTSTSTAYMELSSLRSEDTAVYYCARGQEYFYWYFDLWGQGTLVTVSS VL: QSALTQPPSASGSPGQSVTISCSGSSSDIGGYNRVSWYQQHPGKAPKLMIYDVSKRPSGVPDRFSGSKSGNTASLTVSGLQAEDEADYYCSSYAGTDTFILFGGGTKLTVL	–	–	–	–	0.0185	–	IC50, inhibition of human TSLP-induced Stat5 activation (Stat5-luciferase reporter, Ba/F3 cells with hTSLPR and hIL7Ra) (human TSLP [7]): 0.00463 µg/mL; EC50 (read off the curve) (human TSLP [8]): ~0.07 µg/mL; EC50 (read off the curve) (cynomolgus monkey TSLP [9]): ~0.7 µg/mL; IC50 (TSLP-His): 0.351 µg/mL
TSLP-0204 (antibody, V domains shown) VH: QVQLVQSGAEVKKPGSSVKVSCKASGFTFGSYGINWVRQAPGQGLEWLGVIVPLVGVTIYAEKFQGRVTITADTSTSTAYMELSSLRSEDTAVYYCARGQEYFYWYFDLWGQGTLVTVSS VL: QSALTQPPSASGSPGQSVTISCTGTSSDIGGYNRVSWYQQHPGKAPKLMIYEVNKRSSGVPDRFSGSKSGNTASLTVSGLQAEDEADYYCTSYAGTDTFVLFGGGTKLTVL	–	–	–	0.0189	0.0422	–	EC50 (read off the curve) (human TSLP [8]): ~0.1 µg/mL; EC50 (read off the curve) (cynomolgus monkey TSLP [9]): ~0.2 µg/mL; IC50 (TSLP-His): 0.428 µg/mL
TSLP-0208 (antibody, V domains shown) VH: QVQLVQSGAEVKKPGSSVKVSCKASGFTFGSYGISWVRQAPGQGLEWLGVIIPLLGVPNYAEKFQGRVTITADTSTSTAYMELSSLRSEDTAVYYCARGAEYFYWYFDLWGQGTLVTVSS VL: QSALTQPPSASGSPGQSVTISCTGSNSDIGGYNRVSWYQQHPGKAPKLMIYEISKRPSGVPDRFSGSKSGNTASLTVSGLQAEDEADYYCSSYAGTDTFVLFGGGTKLTVL	–	–	–	–	–	–	EC50 (read off the curve) (human TSLP [10]): ~0.1 µg/mL; EC50 (read off the curve) (cynomolgus monkey TSLP [11]): ~0.3 µg/mL
TSLP-0203 (antibody, V domains shown) VH: QVQLVQSGAEVKKPGSSVKVSCKASGFTFGSYGINWVRQAPGQGLEWLGVIVPLVGVTIYAEKFQGRVTITADTSTSTAYMELSSLRSEDTAVYYCARGQEYFYWYFDLWGQGTLVTVSS VL: QSALTQPPSASGSPGQSVTISCTGTSSDIGGYDRVSWYQQHPGKAPKLMIYGVSKRPSGVPDRFSGSKSGNTASLTVSGLQAEDEADYYCSSYASGHTFGLFGGGTKLTVL	–	–	–	0.0215	0.0363	–	EC50 (read off the curve) (human TSLP [8]): ~0.1 µg/mL; EC50 (read off the curve) (cynomolgus monkey TSLP [9]): ~0.3 µg/mL; IC50 (TSLP-His): 0.383 µg/mL
TSLP-0207 (antibody, V domains shown) VH: QVQLVQSGAEVKKPGSSVKVSCKASGFTFGSYGISWVRQAPGQGLEWLGVIVPLVGVTIYAEKFQGRVTITADTSTSTAYMELSSLRSEDTAVYYCARGQEYFYWYFDLWGQGTLVTVSS VL: QSALTQPPSASGSPGQSVTISCTGTSSDIGGYNRVSWYQQHPGKAPKLMIYEFNKRPSGVPDRFSGSKSGNTASLTVSGLQAEDEADYYCSSYAGTDIFVLFGGGTKLTVL	–	–	–	0.025	0.133	–	EC50 (read off the curve) (human TSLP [10]): ~0.05 µg/mL
